Experiment [1] has as its target chloride intracellular channel 1, CLIC1^C24 (C59A, C89A, C178A, C191A, C223A), Alexa Fluor 647-labelled (UniProt O00299). Kind of experiment: single-molecule TIRF colocalisation and photobleaching step counting; AF647-labelled CLIC (2 μM) with AF488-labelled sHsp (4 μM) in 50 mM phosphate buffer pH 7.4 at 42°C for up to 7 h; aliquots cross-linked with BS3 (250 μM), diluted to 1-20 nM; His-tagged CLIC held through a biotinylated anti-6X His antibody on a NeutrAvidin coverslip; imaged at 20°C; chance colocalisation subtracted.

The target of experiment [2] is rhodanese^(K135C, K174C) with AviTag, biotinylated, Alexa Fluor 647-labelled (UniProt P00586). In words: single-molecule TIRF colocalisation and photobleaching step counting; AF647-labelled client (2 μM) with AF488-labelled sHsp or SSB (4 μM) in 50 mM phosphate buffer pH 7.4 at 42°C for up to 7 h; aliquots cross-linked with BS3 (250 μM), diluted to 1-20 nM; biotinylated FLUC or rhodanese held on a NeutrAvidin coverslip; imaged at 20°C; chance colocalisation subtracted.

Experiment [3] deals with firefly luciferase FLUC^(ΔCys, K141C, K491C), biotinylated, Alexa Fluor 647-labelled (firefly) [luciferase: P08659]. The description is as above.
Experiment [4] has as its target αB-crystallin with an additional C-terminal cysteine (αB-c_(C176)), Alexa Fluor 488-labelled (human) (UniProt P02511). The description is as above.

Several values for one entry are separate records, joined by “and”; a condition that tells them apart may be missing. Identical values can stand only once.

In general, stoichiometry N refers to the number of molecules, sites or subunits per partner or assembly. Regarding “Hsp27 cysteine mutant (Hsp27_(C137S,C207)), Alexa Fluor 488-labelled (from UniProt P04792 1-205) (natural protein)”, the percent of client molecules colocalised with the sHsp (first hour) in experiment [1] worked out at 15%. Further, the stoichiometry N in experiment [1] (scale: Hsp27:CLIC) is 0.29 and 0.69. Besides, the percent of client molecules colocalised with the sHsp (within 0.3 h) in experiment [2] worked out at 40%. In experiment [3], this substance had an FLUC subunits in complexes with Hsp27 (1 h) (FLUC subunits/complex) of 5; an FLUC subunits per molecule, in and out of complexes with Hsp27 (0 h) of 2 subunits; a median FLUC subunits in complexes with Hsp27 (0.6 h) (subunits per complex) of 20; a percent of client molecules colocalised with the sHsp (after 1 h) of 17%. The same substance displayed a percent of client molecules colocalised with the sHsp (within 0.6 h) in experiment [3] of 35%. Further, the stoichiometry N in experiment [3] (scale: Hsp27:FLUC) was 0.68 and 1.75 and 1.24.

“single-stranded binding protein (SSB), fluorescently labelled, non-chaperone control (from UniProt P0AGE0 1-178) (natural protein)”: in experiment [2], the percent colocalised is below 3%.

Take “αB-crystallin with an additional C-terminal cysteine (αB-c_(C176)), Alexa Fluor 488-labelled (from UniProt P02511 1-175) (natural protein)”: in experiment [1], the percent of client molecules colocalised with the sHsp (within 0.3 h) amounted to 20%. In experiment [3], this substance registered an FLUC subunits in complexes with αB-c of 8 subunits, a colocalised αB-c subunits per complex (1 h) (subunits/complex) of 13 and a percent of client molecules colocalised with the sHsp (within 0.3 h) of 40%. Moreover, the stoichiometry N (subunits/oligomer) in experiment [4] worked out at 6.

The values above are taken from PMC12203938.
